Results: paper PMC2927781 (2010)
Where no end group is shown, it is not given here. Me2 = dimethyl

Legend:
[1] = target: T1, PHD_(Pygo2)–HD1_(BCL9) complex (human, UniProt Q9BRQ0 327-387; O00512 177-205); assay: ITC
T1 chain: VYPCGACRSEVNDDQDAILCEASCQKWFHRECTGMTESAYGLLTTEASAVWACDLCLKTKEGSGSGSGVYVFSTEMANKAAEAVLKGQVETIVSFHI

[2] = target: T2, PHD_(Pygo1)–HD1_(BCL9) complex (6×His-tagged, PHD linked to HD1) (human, UniProt Q9Y3Y4 340-400; O00512 177-205); assay: ITC
T2 chain: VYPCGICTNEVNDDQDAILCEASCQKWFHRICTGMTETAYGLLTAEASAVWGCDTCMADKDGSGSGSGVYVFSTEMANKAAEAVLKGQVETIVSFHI

Kd [1]: 2020 nM
Kd [2]: 3320 nM
Binder: ARTK(Me2)QTARKSTGGKA [15-mer H3K4me2 histone tail peptide (histone H3 tail dimethylated at lysine 4)]
